Measurements as given in US20230295310A1 (ABCELLERA BIOLOGICS, published 2023).
Numbering of substitutions follows the chain as printed.

B1: mAb 264 (antibody, V domains shown)
VH: EVQLLESGGGLVQPGGSLRLSCVASGFTFRSSSMTWVRQAPGKGLEWVSGIRGSGGRTYDAESVKGRFTISRDNSKNTLYLQMNSLRAEDTAEYYCAKLYDYYNDYMDVWGKGTTVTVSS
VL: SYELTQPLSVSVALGQTARITCGGNNIGSKNVHWYQQKPGQAPVLVIYRDSNRPSGIPERFSGSNSGNTATLTISRAQAGDEADYYCQVWDSSTAVFGGGTQLTAL
notes: VH/VL only
B2: mAb 284 (antibody, V domains shown)
VH: EVQLLESGGGLVQPGGSLRLSCAASGFTFSSYAMSWVRQAPGKGLEWVSAISGSSGRTYYTDSVKGRFTISRDNSKNTLSLQMNSLRAEDTAVYYCAKKYSYYYYYMDVWGKGTTVTVSS
VL: B1 VL with R19K
notes: VH/VL only
B3: mAb 263 (antibody, V domains shown)
VH: EVQLLESGGGLVQPGGSLRLSCTPSGITFNNYAMTWVRQAPGKGLEWVSGISVSGGSTYYADSVMGRFTISRDSSKTLYLQMNSLRAEDTAVYYCAKFHSHYYYYMDVWGKGTTVTVSS
VL: B1 VL with N31D, S92R, S93R
notes: VH/VL only
B4: mAb 262 (antibody, V domains shown)
VH: B1 VH with Q3R, V23A, T35A, A40D, S49T, E62D
VL: B1 VL
notes: VH/VL only
B5: mAb 259 (antibody, V domains shown)
VH: B1 VH with Q3L, V23A, N74I, L86V
VL: B1 VL
notes: VH/VL only
B6: mAb 261 (antibody, V domains shown)
VH: EVQLLESGGGFMQPGGSLRLSCAVSGFTFRTSSMAWVRQAPGKGLEWVSGIRGSGGRTYDAESVKGRFTISRDISKNTLYLQMNNLRAEDTAEYYCAKLYDYYNDFMDVWGKGTTVIVSA
VL: B1 VL
notes: VH/VL only
B7: mAb 260 (antibody, V domains shown)
VH: B1 VH with T35A, T69I, N74T, A88G, Y95F
VL: B1 VL
notes: VH/VL only
B8: mAb 276 (antibody, V domains shown)
VH: EVQLVESGGGLVQPGGSLRLSCAASGIPFSTYSMNWVRQAPGKGLEWVSYISGSSRTIYYADSVKGRFTISRDNAKKLLFLQMNSLRDEDTAVYYCAREGDYYDSSGWAYWGQGTLVTVSS
VL: DIQMTQSPSSLSASVGDRVTITCRASQNIYKYLNWYEQKPGRAPKLLIYTTSNLQSGVPSRFSGSGSGTAFTLIISSLQPEDFATYYCQQSYGSPYTFGQGTKLEIK
notes: VH/VL only
B9: GOMP001_bsAb_011 (bispecific antibody, human IgG1, kappa, L234A L235A)
heavy 1: QVQLVQSGAEVKKPGASVKVSCKASGYTFTSHWMHWVRKAPGQGLEWIGEFNPSNGRTNYNEEFKSKATMTVDTSTNTAYMELSSLRSEDTAVYYCASRDYDYDGRYFDYWGQGTLVTVSSASTKGPSVFPLAPSSKSTSGGTAALGCLVADYFPEPVTVSWNSGALTSGVHTFPAVLQSSGLYSLSSVVTVPSSSLGTQTYICNVNHKPSNTKVDEKVEPKSCDKTHTCPPCPAPEAAGGPSVFLFPPKPKDTLMISRTPEVTCVVVDVSHEDPEVKFNWYVDGVEVHNAKTKPREEQYNSTYRVVSVLTVLHQDWLNGKEYKCKVSNKALPAPIEKTISKAKGQPREPQVYTLPPSREEMTDNQVSLTCLVKGFYPSDIAVEWESNGQPENNYKTTPPVLMSDGSFFLASKLTVDKSRWQQGNVFSCSVMHEALHNHYTQKSLSLSPG
light 1: RIQMTQSPSSLSASVGDRVTITCSASSSVTYMYWYQDKPGKAPKLLIYDTSNLASGVPSRFSGSGSGTDYTFTISSLQPEDIATYYCQQWSSHIFTFGQGTKVEIKRTVAAPSVFIFPPSDKQLKSGTARVVCLLNNFYPREAKVQWKVDNALQSGNSQESVTEQDSKDSTYSLSSTLTLSKADYEKHKVYACEVTHQGLSSPVTKSFNRGEC
heavy 2: EVQLVESGGGLVQPGGSLRLSCAASGFTLSSYTMNWVRYAPGKGLEWVSYISSSSRTIYYSDRVKGRFSISRDNAKNSLYLQMNSLRDEDTALYYCAREDYYDSSGFDNWGRGTLVTVSSASTKGPSVFPLAPSSKSTSGGTAALGCLVKDYFPEPVTVSWNSGALTSGVHTFPAVLQSSGLYSLSSVVTVPSSSLGTQTYICNVNHKPSNTKVDKKVEPKSCDKTHTCPPCPAPEAAGGPSVFLFPPKPKDTLMISRTPEVTCVVVDVSHEDPEVKFNWYVDGVEVHNAKTKPREEQYNSTYRVVSVLTVLHQDWLNGKEYKCKVSNKALPAPIEKTISKAKGQPRRPRVYTLPPSREEMTKNQVSLVCLVKGFYPSDIAVEWESNGQPENNYKTTPPVLDSDGSFFLYSVLTVDKSRWQQGNVFSCSVMHEALHNHYTQKSLSLSPG
light 2: DIRMTQSPSSFSASTGDRVTITCRASQGISSYLAWYQRKPGDAPKLLIYTASTLQSGVPSRFSGSGSGTDFTLTIRSLQSEDFATYYCQQYYSYPRTFGQGTKVEIKRTVAAPSVFIFPPSDEQLKSGTASVVCLLNNFYPREAKVQWKVDNALQSGNSQESVTEQDSKDSTYSLSSTLTLSKADYEKHKVYACEVTHQGLSSPVTKSFNRGEC
B10: mAb 283 (antibody, V domains shown)
VH: QVHLVQSGAEVKKPGASVRVSCKASGYTFTGYYIHWLRQAPGQGLEWLGWINPNSGGTNYSQKFRGRVTMTRDTSISTAYMELSRLRSDDTAVYYCARDKVWEQQLVGGFDYWGQGTLVTVSS
VL: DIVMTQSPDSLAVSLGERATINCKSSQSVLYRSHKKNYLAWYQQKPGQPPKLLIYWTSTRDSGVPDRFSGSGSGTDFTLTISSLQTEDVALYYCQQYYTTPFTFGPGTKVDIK
notes: VH/VL only

How the values were obtained:
[1] = molecular target: T1, human CD3 expressed on cells (Jurkat cells; human primary T cells) (human, UniProt P07766 23-207; P04234 22-171; P09693 23-182); test: flow cytometry, 25 nM, Jurkat cells
T1 construct: whole, on cells
T1 sequence (P07766 23-207, chain 1 of 3): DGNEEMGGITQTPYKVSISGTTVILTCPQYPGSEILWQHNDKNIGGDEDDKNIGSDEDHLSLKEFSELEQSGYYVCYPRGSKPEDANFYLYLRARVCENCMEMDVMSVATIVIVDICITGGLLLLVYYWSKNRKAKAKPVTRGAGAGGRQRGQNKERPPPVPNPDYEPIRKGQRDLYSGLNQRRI
T1 sequence (P04234 22-171, chain 2 of 3): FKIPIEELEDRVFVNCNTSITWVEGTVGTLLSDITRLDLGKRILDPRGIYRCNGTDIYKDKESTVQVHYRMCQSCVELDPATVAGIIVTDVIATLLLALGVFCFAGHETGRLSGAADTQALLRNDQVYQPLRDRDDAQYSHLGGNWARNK
T1 sequence (P09693 23-182, chain 3 of 3): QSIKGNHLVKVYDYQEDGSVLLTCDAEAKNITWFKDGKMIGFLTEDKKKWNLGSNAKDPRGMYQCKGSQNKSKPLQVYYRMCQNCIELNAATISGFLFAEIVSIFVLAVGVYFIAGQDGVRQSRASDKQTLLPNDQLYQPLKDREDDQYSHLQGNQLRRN
Method in brief: (§1)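 Antibodies at 25 nM in PBS + 2% FBS were incubated with CD3-expressing cells for 30 minutes at 4° C and analysed by flow cytometry. Median fluorescence intensity was normalized to isotype control to give fold over isotype (FOI); FOI ≥10 counted as binding.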

[2] = molecular target: T2, cynomolgus monkey CD3 expressed on cyno primary T cells (cynomolgus monkey, UniProt Q95LI5 22-198; Q95LI8 22-171; Q95LI7 23-181); test: flow cytometry, cyno primary T cells
T2 construct: whole, on cells; CD3 complex on purified cynomolgus monkey CD3 pan T cells; also called cyno CD3
T2 sequence (Q95LI5 22-198, chain 1 of 3): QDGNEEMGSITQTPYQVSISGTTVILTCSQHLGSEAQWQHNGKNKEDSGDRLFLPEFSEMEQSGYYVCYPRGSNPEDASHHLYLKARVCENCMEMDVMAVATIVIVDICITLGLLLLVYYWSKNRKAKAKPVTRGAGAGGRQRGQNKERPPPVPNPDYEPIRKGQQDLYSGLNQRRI
T2 sequence (Q95LI8 22-171, chain 2 of 3): as the sequence (P04234 22-171, chain 2 of 3) above, with I5V, N15K, I20V, S32T, D33N, I34N, T64A, S74N, V83L, H141R counted along it
T2 sequence (Q95LI7 23-181, chain 3 of 3): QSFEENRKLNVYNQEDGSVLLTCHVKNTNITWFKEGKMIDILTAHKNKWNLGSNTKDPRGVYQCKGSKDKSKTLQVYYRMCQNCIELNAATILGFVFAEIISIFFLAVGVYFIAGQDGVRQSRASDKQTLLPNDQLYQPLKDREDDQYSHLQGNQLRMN
Method in brief: as §1

[3] = molecular target: T1, human CD3 expressed on cells (Jurkat …); test: flow cytometry, 25 nM, human primary T cells
Method in brief: as §1

[4] = molecular target: human EGFR, C-terminal eGFP-tagged, on CHO-K1 cells (human, UniProt P00533 25-1210); test: cell-based or functional assay

| Binder | Binding (FOI) [1] | binding result [2] | Binding (FOI) [3] | EC50 CHO-K1 EGFR Low (nM); T cell activation bioassay, luciferase [4] | EC50 CHO-K1 EGFR Med (nM); T cell activation bioassay, luciferase [4] |
| --- | --- | --- | --- | --- | --- |
| B1 | 174 FOI | no binding (tested: FOI <10 (FOI >=10 = positive); 25 nM) | 220 FOI |  |  |
| B2 | 226 FOI | no binding (tested: FOI <10 (FOI >=10 = positive); 25 nM) | 209 FOI |  |  |
| B3 | 188 FOI | no binding (tested: FOI <10 (FOI >=10 = positive); 25 nM) | 248 FOI |  |  |
| B4 | 165 FOI | no binding (tested: FOI <10 (FOI >=10 = positive); 25 nM) | 219 FOI |  |  |
| B5 | 169 FOI | no binding (tested: FOI <10 (FOI >=10 = positive); 25 nM) | 214 FOI |  |  |
| B6 | 188 FOI | no binding (tested: FOI <10 (FOI >=10 = positive); 25 nM) | 229 FOI |  |  |
| B7 | 178 FOI | no binding (tested: FOI <10 (FOI >=10 = positive); 25 nM) | 219 FOI |  |  |
| B8 | 156 FOI | no binding (tested: FOI <10 (FOI >=10 = positive); 25 nM) | 149 FOI |  |  |
| B9 |  |  |  | 0.106 nM | 0.0263 nM |
| B10 | 216 FOI | no binding (tested: FOI <10 (FOI >=10 = positive); 25 nM) | 128 FOI |  |  |
